This series addresses Timeless (optimised construct);Tipin (human;human, UniProt Q9UNS1;Q9BVW5 1-238+=GSTGST+331-1208;1-301, internal_change|). In words: EMSA. A general note: Mobility shift assays separate free from complexed probe on a gel.

B1: dsG4 (dsGQ) (structured_DNA)
DNA 1: ACGAGAGCTAGCACATTTTGAGGGTGGGTAGGGTGGGTAATTTTCACGTAGAACCTGT
DNA 2: ACAGGTTCTACGTGATTTTTTTTTTTTTTTTTTTTTTTTTTTTTGTGCTAGCTCTCGT
Consider B1, for which the binding result was “binds”.

B2: dsHP (structured_DNA)
DNA 1: ACGAGAGCTAGCACATTTTGAGGCTGCGTTTCGCAGCCTCAATTTCACGTAGAACCTGT
DNA 2: B1 DNA 2
Turning to B2, the binding result is given as “no binding”.

Values taken from paper doi:10.1101/826578.
